Entries after “also recorded” stand apart in the source; their conditions may differ.

One assay addresses T1, HPV18-E7 protein (Human papillomavirus type 18, UniProt P06788).
T1 construct: made in house
The assay can be described thus: biochemical. Format: binding. The note with it: E7 type and method not stated. The method, then:
The association of bacterially expressed HPV18-E7 protein with the p107 30mer peptide was analyzed using an ELISA assay. In the experiment depicted in FIG. 3A, a 96-well cluster plate was coated with p107 30mer peptide and incubated with increasing concentration of a MBP-E7 fusion protein or the MBP protein as a control. […] In the experiment depicted in FIG. 3B, MBP-E7 fusion protein (100 ng) was incubated with a p107 30mer peptide-coated plate in the presence of increasing concentrations of free p107 9mer peptide.

A further assay has as its target T2, E7-Rb complex (Human papillomavirus type 18, UniProt P06788).
T2 construct: made in house; host or cells: bacteria (MBP-E7); baculovirus system (Rb)
The assay can be described thus: ELISA assay of competition for E7-Rb complex formation. The note with it: MBP-E7 coated plate, 100 ng Rb, increasing peptide concentrations. Format: binding. The method, then: To examine the effect of p107 peptide binding upon the E7-Rb interaction, an ELISA assay was used to monitor E7-Rb complex formation. 96-well cluster plates were coated with either MBP-E7 protein (O) or MBP alone as a control (.circle-solid.). The plates were incubated with increasing concentrations of baculovirus expressed Rb which was detected with monoclonal antibody αRb349 (Pharmingen, San Diego Calif.) (FIG. 4A). In a separate experiment, 96-well cluster plates were coated with MBP-E7 protein and incubated with 100 ng Rb in the presence of increasing concentrations of p107 9mer peptide (FIG. 4B). Binding is quantitated as an increase in optical density at 405 nm. […] A corresponding peptide from Rb protein (sequence MCSMYGICK [SEQ ID NO: 2]) also binds to the E7 oncoprotein and competes for the E7-Rb interaction.
On the technique in general: An ELISA detects its analyte on a solid surface through an enzyme-linked reagent.

T2 sequence (P06788 whole entry, one chain of several): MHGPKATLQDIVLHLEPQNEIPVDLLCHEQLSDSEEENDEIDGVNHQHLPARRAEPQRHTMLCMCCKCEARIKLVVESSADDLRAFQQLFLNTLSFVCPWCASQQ
T1 sequence (P06788 whole entry): as the sequence (P06788 whole entry, one chain of several) above

Regarding “MCSMYGICK [nine amino acid peptide derived from Rb]”, the “binding to the E7 oncoprotein” value in the assay with HPV18-E7 protein is “binds”. In addition, the “competition for E7 association with Rb” value with E7-Rb complex is given as “competes; also recorded: inhibits E7 binding to Rb”.

The values above are taken from patent publication US5625031A, “Peptide inhibitors of the p33^cdk2 and p34^cdc2 cell cycle regulatory kinases and human papillomavirus E7 oncoprotein” (Bristol-Myers Squibb Company, priority 1994, dated 1997).
